Measured values as given in patent EP3583122A1 (dated 2019).

How the values were obtained:
[1] = molecular target: T1, RESTV GP on rVSV particles (Reston virus (RESTV), UniProt Q66799 34-677); test: cell-based or functional assay
T1 sequence: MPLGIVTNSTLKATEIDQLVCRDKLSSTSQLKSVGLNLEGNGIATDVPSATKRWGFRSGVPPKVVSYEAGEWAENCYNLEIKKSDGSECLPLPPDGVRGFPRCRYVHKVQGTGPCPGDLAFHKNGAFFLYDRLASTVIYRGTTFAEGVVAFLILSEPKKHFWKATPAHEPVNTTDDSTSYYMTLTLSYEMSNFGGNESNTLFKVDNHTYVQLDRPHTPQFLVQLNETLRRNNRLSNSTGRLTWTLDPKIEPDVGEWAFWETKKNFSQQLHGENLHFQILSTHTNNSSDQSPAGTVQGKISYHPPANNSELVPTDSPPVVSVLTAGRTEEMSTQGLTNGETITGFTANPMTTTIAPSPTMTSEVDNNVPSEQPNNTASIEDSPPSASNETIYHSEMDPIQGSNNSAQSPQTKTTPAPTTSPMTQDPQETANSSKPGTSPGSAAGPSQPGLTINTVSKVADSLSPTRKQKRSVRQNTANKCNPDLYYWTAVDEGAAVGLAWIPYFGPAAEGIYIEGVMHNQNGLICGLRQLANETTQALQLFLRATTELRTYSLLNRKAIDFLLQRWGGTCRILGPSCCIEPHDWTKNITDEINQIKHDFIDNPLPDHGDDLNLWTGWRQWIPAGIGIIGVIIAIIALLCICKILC

[2] = molecular target: T2, SUDV GP on rVSV particles (Sudan virus (SUDV), UniProt Q66814 33-676); test: cell-based or functional assay
T2 sequence: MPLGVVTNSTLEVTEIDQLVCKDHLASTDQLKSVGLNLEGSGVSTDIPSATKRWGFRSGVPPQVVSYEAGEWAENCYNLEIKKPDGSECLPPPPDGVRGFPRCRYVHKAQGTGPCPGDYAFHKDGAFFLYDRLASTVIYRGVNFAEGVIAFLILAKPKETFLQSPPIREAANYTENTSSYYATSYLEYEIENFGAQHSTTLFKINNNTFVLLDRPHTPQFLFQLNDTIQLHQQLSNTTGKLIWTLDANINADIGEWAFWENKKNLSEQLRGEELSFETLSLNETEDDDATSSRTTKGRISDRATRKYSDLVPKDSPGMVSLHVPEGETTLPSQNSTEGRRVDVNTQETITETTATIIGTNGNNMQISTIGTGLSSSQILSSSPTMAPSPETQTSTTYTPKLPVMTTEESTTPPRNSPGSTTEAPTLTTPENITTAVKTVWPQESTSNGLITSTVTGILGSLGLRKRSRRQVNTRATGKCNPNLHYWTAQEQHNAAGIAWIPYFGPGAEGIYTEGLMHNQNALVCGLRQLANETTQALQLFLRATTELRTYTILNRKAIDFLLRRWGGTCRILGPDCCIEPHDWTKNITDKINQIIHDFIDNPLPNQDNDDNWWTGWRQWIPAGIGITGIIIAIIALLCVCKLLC

[3] = molecular target: BDBV GP on rVSV particles (Bundibugyo virus (BDBV)); test: cell-based or functional assay
[4] = molecular target: T3, TAFV GP on VSV pseudotype particles (Tai Forest virus (TAFV), UniProt Q66810 33-676); test: cell-based or functional assay
T3 sequence: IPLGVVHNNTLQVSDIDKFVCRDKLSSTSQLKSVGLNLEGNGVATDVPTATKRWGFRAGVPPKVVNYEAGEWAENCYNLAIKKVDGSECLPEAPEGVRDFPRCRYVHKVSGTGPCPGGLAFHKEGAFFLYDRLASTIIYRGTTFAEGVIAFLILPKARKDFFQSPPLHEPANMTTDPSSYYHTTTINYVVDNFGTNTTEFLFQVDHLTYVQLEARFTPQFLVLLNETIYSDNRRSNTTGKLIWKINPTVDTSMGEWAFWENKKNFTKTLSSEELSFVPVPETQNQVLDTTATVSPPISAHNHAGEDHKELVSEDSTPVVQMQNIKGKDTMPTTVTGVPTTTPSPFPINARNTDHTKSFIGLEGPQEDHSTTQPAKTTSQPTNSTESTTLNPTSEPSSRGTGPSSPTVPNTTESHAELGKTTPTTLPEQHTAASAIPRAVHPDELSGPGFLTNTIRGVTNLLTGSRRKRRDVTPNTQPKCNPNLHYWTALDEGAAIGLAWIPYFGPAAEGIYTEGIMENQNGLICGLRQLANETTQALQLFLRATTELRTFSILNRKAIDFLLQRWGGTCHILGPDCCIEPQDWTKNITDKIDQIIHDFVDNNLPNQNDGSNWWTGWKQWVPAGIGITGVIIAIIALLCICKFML

[5] = molecular target: T4, EBOV GP on rVSV particles (Ebola virus (EBOV), UniProt Q05320 33-676); test: cell-based or functional assay
T4 sequence: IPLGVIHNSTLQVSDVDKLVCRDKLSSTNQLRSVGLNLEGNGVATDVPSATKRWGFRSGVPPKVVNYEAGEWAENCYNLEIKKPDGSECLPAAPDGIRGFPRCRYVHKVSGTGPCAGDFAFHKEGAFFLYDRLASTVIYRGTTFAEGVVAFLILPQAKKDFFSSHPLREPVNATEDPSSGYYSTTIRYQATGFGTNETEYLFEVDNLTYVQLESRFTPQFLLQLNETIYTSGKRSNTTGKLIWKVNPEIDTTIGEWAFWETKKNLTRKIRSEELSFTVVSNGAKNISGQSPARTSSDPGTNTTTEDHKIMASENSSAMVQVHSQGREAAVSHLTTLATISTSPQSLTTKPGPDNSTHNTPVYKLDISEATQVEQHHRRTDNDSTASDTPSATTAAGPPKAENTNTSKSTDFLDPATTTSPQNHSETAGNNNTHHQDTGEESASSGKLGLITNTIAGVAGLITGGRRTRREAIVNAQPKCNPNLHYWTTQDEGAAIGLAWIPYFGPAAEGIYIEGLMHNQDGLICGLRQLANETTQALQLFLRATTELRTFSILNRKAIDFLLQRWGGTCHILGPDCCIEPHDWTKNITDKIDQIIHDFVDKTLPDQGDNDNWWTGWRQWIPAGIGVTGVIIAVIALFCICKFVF

[6] = molecular target: EBOV GPCL (cleaved soluble EBOV GP) (Ebola virus (EBOV), UniProt Q05320 33-650); test: BLI (OctetRed), IgG on anti-human Fc sensors, GPCL in solution, 1:1 fit

B1: PE-87 D110A (antibody, V domains shown)
VH: QVQLVQSGVTLVQPGGSLRVSCAASGFTFSSYAMSWVRQAPGKGLEWVSAISGLGGSTYYADSVKGRFTISRDNSKNTLYLQMNSLRAEDTAVYYCAKDHRVWAAGYHFAYWGQGALVTVSS
VL: DIVLTQSPSTLSASVGDRVTITCRASQSISSWLAWYQQKPGEAPKLLISDASSLESGVPSRFSGSGSGTEFTLTISSLQPDDFATYYCQQYYSSPTFGGGTKVEIK
[1]
  IC50, half-maximal neutralization of viral infectivity (rVSV-GP): 0.4 nM
[2]
  IC50, half-maximal neutralization of viral infectivity (rVSV-GP): 1.5 nM
[3]
  IC50, half-maximal neutralization of viral infectivity (rVSV-GP): 0.9 nM
[4]
  IC50, half-maximal neutralization of viral infectivity (rVSV-GP): 2.1 nM
[5]
  IC50, half-maximal neutralization of viral infectivity (rVSV-GP): 2 nM

B2: PE-87 Y111A (antibody, V domains shown)
VH: QVQLVQSGVTLVQPGGSLRVSCAASGFTFSSYAMSWVRQAPGKGLEWVSAISGLGGSTYYADSVKGRFTISRDNSKNTLYLQMNSLRAEDTAVYYCAKDHRVWAAGYHFDAWGQGALVTVSS
VL: DIVLTQSPSTLSASVGDRVTITCRASQSISSWLAWYQQKPGEAPKLLISDASSLESGVPSRFSGSGSGTEFTLTISSLQPDDFATYYCQQYYSSPTFGGGTKVEIK
[1]
  IC50, half-maximal neutralization of viral infectivity (rVSV-GP): 0.1 nM
[2]
  IC50, half-maximal neutralization of viral infectivity (rVSV-GP): 0.8 nM
[3]
  IC50, half-maximal neutralization of viral infectivity (rVSV-GP): 0.4 nM
[4]
  IC50, half-maximal neutralization of viral infectivity (rVSV-GP): 1.1 nM
[5]
  IC50, half-maximal neutralization of viral infectivity (rVSV-GP): 0.8 nM

B3: mAb PE-87 (antibody, V domains shown)
VH: QVQLVQSGVTLVQPGGSLRVSCAASGFTFSSYAMSWVRQAPGKGLEWVSAISGLGGSTYYADSVKGRFTISRDNSKNTLYLQMNSLRAEDTAVYYCAKDHRVWAAGYHFDYWGQGALVTVSS
VL: DIVLTQSPSTLSASVGDRVTITCRASQSISSWLAWYQQKPGEAPKLLISDASSLESGVPSRFSGSGSGTEFTLTISSLQPDDFATYYCQQYYSSPTFGGGTKVEIK
[6]
  Kd: < 0.001 nM
